Patent US6051217, “Therapeutic uses of interleukin-3 (IL-3) multiple mutation polypeptides” (G. D. Searle & Co., dated 2000)
Substitutions are numbered along the chain they refer to.

T1: hIL-3 receptor (human, UniProt P26951)
T1 sequence: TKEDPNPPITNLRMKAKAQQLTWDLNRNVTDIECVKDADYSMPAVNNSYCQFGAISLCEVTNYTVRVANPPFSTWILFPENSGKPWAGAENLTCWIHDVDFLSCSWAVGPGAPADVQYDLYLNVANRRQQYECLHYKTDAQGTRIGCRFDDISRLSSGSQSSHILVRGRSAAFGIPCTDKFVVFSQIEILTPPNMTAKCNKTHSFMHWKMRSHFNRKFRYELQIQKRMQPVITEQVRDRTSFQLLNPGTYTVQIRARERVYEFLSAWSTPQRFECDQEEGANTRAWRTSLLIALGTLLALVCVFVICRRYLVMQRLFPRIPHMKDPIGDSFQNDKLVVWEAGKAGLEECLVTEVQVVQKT

B1: pMON13403 polypeptide (ligand)
chain: MANCSIMIDEIIHHLKRPPNPLLDPNNLNSEDMDILMDSNLRTPNLLAFPHASKQLENASGIEAILRNLQPCLPSATAAPSRHPIIIKAGDWQEFREKLTFYLVTLEQAQEQQ
B2: pMON13419 polypeptide (ligand)
chain: B1 chain with R42L, E97L, T100Q, V104S, T105S
B3: pMON13413 polypeptide (ligand)
chain: B1 chain with D38E, S39R, P50V, H51R, S53V, Q55H, E97L, T100Q, V104S, T105S
B4: pMON13411 polypeptide (ligand)
chain: B1 chain with D38E, S39R, P50V, H51R, S53V, Q55H, E97L, T100Q, V104S
B5: pMON13379 polypeptide (ligand)
chain: MANCSIMIDEIIHHLKRPPAPLLDPNNLNAEDVSILMDRNLRLPNLESFVRAVKNLENASGIEAILRNLQPCLPSATAAPSRHPIIIKAGDWQEFREKLQFYLVTLEQAQEQQ
B6: pMON13384 polypeptide (ligand)
chain: B5 chain with S34D, D38E
B7: pMON13389 polypeptide (ligand)
chain: B5 chain with A30D, V33M, S34D, D38E, Q100T
B8: pMON13420 polypeptide (ligand)
chain: B5 chain with I11A, L22S, A30D, P44S, Q100T
B9: pMON13382 polypeptide (ligand)
chain: B5 chain with S34D, D38E, V104W
B10: pMON13393 polypeptide (ligand)
chain: B5 chain with I11A, L22S, A30D, V33M, D38E, Q100T
B11: pMON13421 polypeptide (ligand)
chain: B5 chain with I11A, L22S, A30D, V33M, P44S, Q100T
B12: pMON13381 polypeptide (ligand)
chain: B5 chain with S34D, D38E, Q70W, Q100T
B13: pMON13387 polypeptide (ligand)
chain: B5 chain with S34D, Q100T
B14: pMON13396 polypeptide (ligand)
chain: B5 chain with S34D, D38E, K88R, A89M, Q100T
B15: pMON13415 polypeptide (ligand)
chain: B1 chain with M7I, M33V, D38E, S39R, P50V, H51R, S53V, Q55H
B16: pMON13405 polypeptide (ligand)
chain: B1 chain with M7A, M33V, D38E, S39R, P50V, H51R, S53V, Q55H
B17: pMON13391 polypeptide (ligand)
chain: B5 chain with L22S, S34D, D38E, Q100T
B18: pMON13432 polypeptide (ligand)
chain: B5 chain with I11A, L22S, A30D, V33M, Q100T
B19: pMON13385 polypeptide (ligand)
chain: B5 chain with R17V, A20R, L22S, S34D, D38E, Q100T
B20: pMON13397 polypeptide (ligand)
chain: B5 chain with S34D, D38E, Q70W, K88R, A89M, Q100T
B21: pMON13407 polypeptide (ligand)
chain: B1 chain with M33V, D38E, S39R, P50V, H51R, S53V, Q55H
B22: pMON13388 polypeptide (ligand)
chain: B5 chain with S34D, P44S, Q100T
B23: pMON13392 polypeptide (ligand)
chain: B5 chain with A30D, S34D, D38E, Q100T
B24: pMON13380 polypeptide (ligand)
chain: B5 chain with I11A, R17V, P25S, A30S, V33M, S34D, D38E, E47L, S48A
B25: pMON13404 polypeptide (ligand)
chain: MANCSIMIDEIIHHLKRPPAPLLDPNNLNAEDVDILMERNLRLPNLESFVRAVKNLENASGIEAILRNLQPCLPSATAAPSRHPIIIKAGDWQEFREKLQFYLVTLE
B26: pMON13400 polypeptide (ligand)
chain: MANCSIMPDEAIHHLKIPPNPSLDSANLNSEDVSILMERNLRTPNLLAFVRAVKHLENASGIEAILRNLQPCLPSATAAPSRHPIIIKAGDWQEFREKLTFYLVTLEQAQEQQ
B27: pMON13424 polypeptide (ligand)
chain: B1 chain with M7A, M33V, M37L, D38E, S39R, P50V, H51R, S53V, Q55H
B28: pMON13422 polypeptide (ligand)
chain: B1 chain with M7A, M33V, M37I, D38E, S39R, P50V, H51R, S53V, Q55H
B29: pMON13425 polypeptide (ligand)
chain: B1 chain with M7I, M33V, M37L, D38E, S39R, P50V, H51R, S53V, Q55H
B30: pMON13406 polypeptide (ligand)
chain: B1 chain with M7A, D38E, S39R, P50V, H51R, S53V, Q55H
B31: pMON13402 polypeptide (ligand)
chain: B26 chain with P8I, A11L
B32: pMON13429 polypeptide (ligand)
chain: B1 chain with M7I, M33V, M37D, D38E, S39R, P50V, H51R, S53V, Q55H
B33: pMON13410 polypeptide (ligand)
chain: B1 chain with M37D, D38E, S39R, P50V, H51R, S53V, Q55H
B34: pMON13414 polypeptide (ligand)
chain: B1 chain with M7I, D38E, S39R, P50V, H51R, S53V, Q55H
B35: pMON13423 polypeptide (ligand)
chain: B1 chain with M7I, M33V, M37I, D38E, S39R, P50V, H51R, S53V, Q55H
B36: pMON13409 polypeptide (ligand)
chain: B1 chain with M37L, D38E, S39R, P50V, H51R, S53V, Q55H
B37: pMON13467 polypeptide (ligand)
chain: B26 chain with P8I, A11L, E97L, T100Q, V104S, T105S
B38: pMON13426 polypeptide (ligand)
chain: B1 chain with M7A, M33V, M37D, D38E, S39R, P50V, H51R, S53V, Q55H
B39: pMON13440 polypeptide (ligand)
chain: B26 chain with P8I, A64P, H83T
B40: pMON13451 polypeptide (ligand)
chain: B26 chain with M7I, P8L, A64P, H83T
B41: pMON13408 polypeptide (ligand)
chain: B1 chain with M37I, D38E, S39R, P50V, H51R, S53V, Q55H
B42: pMON13412 polypeptide (ligand)
chain: MANCSIMIDEIIHHLKRPPNPLLDPNNLNSEDMDILMERNLRTPNLLAFVRAVKHLENASGIEAILRNLQPCLPSATAAPSRHPIIIKAGDWQEFRLKLQFYLSTL
B43: pMON13446 polypeptide (ligand)
chain: MAYPETDYKDDDDKNCSIMIDEIIHHLKRPPAPLLDPNNLNAEDVDILMERNLRLPNLESFVRAVKNLENASGIEAILRNLQPCLPSATAAPSRHPIIIKAGDWQEFREKLTFYLVTLEQAQEQQ
B44: pMON13418 polypeptide (ligand)
chain: MANCSIMIDEIIHHLKRPPNPLLDPNNLNSEDMDILMERNLRTPNLLAFVRAVKHLENASGIEPILSNLQPCVPYWTAPPSRTPITIKAGDWQEFREKLTFYLVTLEQAQEQQ
B45: pMON13459 polypeptide (ligand)
chain: B44 chain with I11L, R17I, L22S, P25S, N26A, M33V, D34S, E97L, T100Q, V104S
B46: pMON13428 polypeptide (ligand)
chain: B44 chain with E97L, T100Q, V104S

target: T1, hIL-3 receptor; assay: cell-based or functional assay

Row | Binder | Relative Biological Activity (AML 193 proliferation)
1 | B1 | 0.03 EC50 (1-133)hIL-3 / EC50 mutant
2 | B2 | 0.015 EC50 (1-133)hIL-3 / EC50 mutant
3 | B3 | 0.6 EC50 (1-133)hIL-3 / EC50 mutant
4 | B4 | 1.2 EC50 (1-133)hIL-3 / EC50 mutant
5 | B5 | 0.9 EC50 (1-133)hIL-3 / EC50 mutant
6 | B6 | 0.25 EC50 (1-133)hIL-3 / EC50 mutant
7 | B7 | 10 EC50 (1-133)hIL-3 / EC50 mutant
8 | B8 | 19 EC50 (1-133)hIL-3 / EC50 mutant
9 | B9 | 38 EC50 (1-133)hIL-3 / EC50 mutant
10 | B10 | 32 EC50 (1-133)hIL-3 / EC50 mutant
11 | B11 | 0.5 EC50 (1-133)hIL-3 / EC50 mutant
12 | B12 | 10 EC50 (1-133)hIL-3 / EC50 mutant
13 | B13 | 32 EC50 (1-133)hIL-3 / EC50 mutant
14 | B14 | 20 EC50 (1-133)hIL-3 / EC50 mutant
15 | B15 | 4 EC50 (1-133)hIL-3 / EC50 mutant
16 | B16 | 9 EC50 (1-133)hIL-3 / EC50 mutant
17 | B17 | 30 EC50 (1-133)hIL-3 / EC50 mutant
18 | B18 | 10 EC50 (1-133)hIL-3 / EC50 mutant
19 | B19 | 1 EC50 (1-133)hIL-3 / EC50 mutant
20 | B20 | 16 EC50 (1-133)hIL-3 / EC50 mutant
21 | B21 | 16 EC50 (1-133)hIL-3 / EC50 mutant
22 | B22 | 23 EC50 (1-133)hIL-3 / EC50 mutant
23 | B23 | 17 EC50 (1-133)hIL-3 / EC50 mutant

Row | Binder | Relative Biological Activity (AML 193 proliferation)
24 | B24 | 0.05 EC50 (1-133)hIL-3 / EC50 mutant
25 | B25 | 1.3 EC50 (1-133)hIL-3 / EC50 mutant
26 | B26 | 0.09 EC50 (1-133)hIL-3 / EC50 mutant
27 | B27 | 3 EC50 (1-133)hIL-3 / EC50 mutant
28 | B28 | 0.4 EC50 (1-133)hIL-3 / EC50 mutant
29 | B29 | 6 EC50 (1-133)hIL-3 / EC50 mutant
30 | B30 | 5 EC50 (1-133)hIL-3 / EC50 mutant
31 | B31 | 20 EC50 (1-133)hIL-3 / EC50 mutant
32 | B32 | > 0.0002 EC50 (1-133)hIL-3 / EC50 mutant
33 | B33 | 0.4 EC50 (1-133)hIL-3 / EC50 mutant
34 | B34 | 4 EC50 (1-133)hIL-3 / EC50 mutant
35 | B35 | 0.4 EC50 (1-133)hIL-3 / EC50 mutant
36 | B36 | 15 EC50 (1-133)hIL-3 / EC50 mutant
37 | B37 | 0.16 EC50 (1-133)hIL-3 / EC50 mutant
38 | B38 | > 0.0003 EC50 (1-133)hIL-3 / EC50 mutant
39 | B39 | 9 EC50 (1-133)hIL-3 / EC50 mutant
40 | B40 | 0.1 EC50 (1-133)hIL-3 / EC50 mutant
41 | B41 | 7 EC50 (1-133)hIL-3 / EC50 mutant
42 | B42 | 0.5 EC50 (1-133)hIL-3 / EC50 mutant
43 | B43 | 21.5 EC50 (1-133)hIL-3 / EC50 mutant
44 | B44 | 0.5 EC50 (1-133)hIL-3 / EC50 mutant
45 | B45 | 0.003 EC50 (1-133)hIL-3 / EC50 mutant
46 | B46 | 0.008 EC50 (1-133)hIL-3 / EC50 mutant
